Data from paper PMC5570898.

Target: CHL1 on ventral midbrain dopaminergic neurons (mouse (endogenous in ventral midbrain primary neurons)) (UniProt P70232)

**Q.** Which results are given for “CHL1 recombinant protein (from UniProt P70232 26-1083) (natural protein)”?
**A.** increase of TH+ neurite branching in E12.5 VM primary cultures on bound CHL1, against the Fc control: 2.4 fold; increase of TH+ neurite branching in E12.5 VM primary cultures with soluble CHL1, against the PDL control: 5 fold; increase of TH+ neurite length in E12.5 VM primary cultures on bound CHL1, against the Fc control: 1.8 fold; increase of TH+ neurite length in E12.5 VM primary cultures with soluble CHL1, against the PDL control: 2 fold
